Reference: patent US20260167699A1 (Chugai, published 2026)

B1: GpH7-A5/GpH7-B3 variant Y300_19Q/GpL16-k0 (antibody, human IgG1, kappa)
heavy 1: not shown
heavy 2: not shown
light: DIVMTQSPLSLPVTPGEPASISCQASESLVHSNRNTYLHWYLQKPGQSPQLLIYKVSNRFSGVPDRFSGSGSGTDFTLKISRVEAEDVGVYYCSQNTHVPPTFGQGTKVEIERTVAAPSVFIFPPSDEQLKSGTASVVCLLNNFYPREAKVQWKVDNALQSGNSQESVTEQDSKDSTYSLSSTLTLSKADYEKHKVYACEVTHQGLSSPVTKSFNRGEC
notes: copies: 1 + 1 + 2
B2: GpH7-A5/GpH7-B3 variant V266_06M/GpL16-k0 (antibody, human IgG1, kappa)
heavy 1: not shown
heavy 2: not shown
light: B1 light
notes: copies: 1 + 1 + 2
B3: GpH7-A5/GpH7-B3 variant Y300_16H/GpL16-k0 (antibody, human IgG1, kappa)
heavy 1: not shown
heavy 2: not shown
light: B1 light
notes: copies: 1 + 1 + 2
B4: GpH7-A5/GpH7-B3 variant Y296_09D/GpL16-k0 (antibody, human IgG1, kappa)
heavy 1: not shown
heavy 2: not shown
light: B1 light
notes: copies: 1 + 1 + 2
B5: GpH7-A5/GpH7-B3 variant Y300_06M/GpL16-k0 (antibody, human IgG1, kappa)
heavy 1: not shown
heavy 2: not shown
light: B1 light
notes: copies: 1 + 1 + 2
B6: GpH7-A5/GpH7-B3 variant Y300_10E/GpL16-k0 (antibody, human IgG1, kappa)
heavy 1: not shown
heavy 2: not shown
light: B1 light
notes: copies: 1 + 1 + 2
B7: GpH7-A5/GpH7-B3 variant Y296_20W/GpL16-k0 (antibody, human IgG1, kappa)
heavy 1: not shown
heavy 2: not shown
light: B1 light
notes: copies: 1 + 1 + 2
B8: GpH7-A5/GpH7-B3 variant Y296_08L/GpL16-k0 (antibody, human IgG1, kappa)
heavy 1: not shown
heavy 2: not shown
light: B1 light
notes: copies: 1 + 1 + 2
B9: GpH7-A5/GpH7-B3 variant Y296_07I/GpL16-k0 (antibody, human IgG1, kappa)
heavy 1: not shown
heavy 2: not shown
light: B1 light
notes: copies: 1 + 1 + 2
B10: GpH7-A5/GpH7-B3 variant Y296_13S/GpL16-k0 (antibody, human IgG1, kappa)
heavy 1: not shown
heavy 2: not shown
light: B1 light
notes: copies: 1 + 1 + 2
B11: GpH7-A5/GpH7-B3 variant Y296_14T/GpL16-k0 (antibody, human IgG1, kappa)
heavy 1: not shown
heavy 2: not shown
light: B1 light
notes: copies: 1 + 1 + 2
B12: GpH7-A5/GpH7-B3 variant T335_12R/GpL16-k0 (antibody, human IgG1, kappa)
heavy 1: not shown
heavy 2: not shown
light: B1 light
notes: copies: 1 + 1 + 2
B13: GpH7-A5/GpH7-B3 variant Y300_02A/GpL16-k0 (antibody, human IgG1, kappa)
heavy 1: not shown
heavy 2: not shown
light: B1 light
notes: copies: 1 + 1 + 2
B14: GpH7-A5/GpH7-B3 variant T335_05P/GpL16-k0 (antibody, human IgG1, kappa)
heavy 1: not shown
heavy 2: not shown
light: B1 light
notes: copies: 1 + 1 + 2
B15: GpH7-A5/GpH7-B3 variant Y300_20W/GpL16-k0 (antibody, human IgG1, kappa)
heavy 1: not shown
heavy 2: not shown
light: B1 light
notes: copies: 1 + 1 + 2
B16: GpH7-A5/GpH7-B3 variant T335_08L/GpL16-k0 (antibody, human IgG1, kappa)
heavy 1: not shown
heavy 2: not shown
light: B1 light
notes: copies: 1 + 1 + 2
B17: GpH7-A5/GpH7-B3 variant V266_07I/GpL16-k0 (antibody, human IgG1, kappa)
heavy 1: not shown
heavy 2: not shown
light: B1 light
notes: copies: 1 + 1 + 2
B18: GpH7-A5/GpH7-B3 variant V266_02A/GpL16-k0 (antibody, human IgG1, kappa)
heavy 1: not shown
heavy 2: not shown
light: B1 light
notes: copies: 1 + 1 + 2
B19: GpH7-A5/GpH7-B3 variant Y300_14T/GpL16-k0 (antibody, human IgG1, kappa)
heavy 1: not shown
heavy 2: not shown
light: B1 light
notes: copies: 1 + 1 + 2
B20: GpH7-A5/GpH7-B3 variant Y296_18N/GpL16-k0 (antibody, human IgG1, kappa)
heavy 1: not shown
heavy 2: not shown
light: B1 light
notes: copies: 1 + 1 + 2
B21: GpH7-A5/GpH7-B3 variant Y296_02A/GpL16-k0 (antibody, human IgG1, kappa)
heavy 1: not shown
heavy 2: not shown
light: B1 light
notes: copies: 1 + 1 + 2
B22: GpH7-A5/GpH7-B3 variant T335_16H/GpL16-k0 (antibody, human IgG1, kappa)
heavy 1: not shown
heavy 2: not shown
light: B1 light
notes: copies: 1 + 1 + 2
B23: GpH7-A5/GpH7-B3 variant T335_18N/GpL16-k0 (antibody, human IgG1, kappa)
heavy 1: not shown
heavy 2: not shown
light: B1 light
notes: copies: 1 + 1 + 2
B24: GpH7-A5/GpH7-B3 variant Y296_16H/GpL16-k0 (antibody, human IgG1, kappa)
heavy 1: not shown
heavy 2: not shown
light: B1 light
notes: copies: 1 + 1 + 2
B25: GpH7-A5/GpH7-B3 variant T335_15Y/GpL16-k0 (antibody, human IgG1, kappa)
heavy 1: not shown
heavy 2: not shown
light: B1 light
notes: copies: 1 + 1 + 2
B26: GpH7-A5/GpH7-B3 variant Y300_03V/GpL16-k0 (antibody, human IgG1, kappa)
heavy 1: not shown
heavy 2: not shown
light: B1 light
notes: copies: 1 + 1 + 2
B27: GpH7-A5/GpH7-B3 variant T335_10E/GpL16-k0 (antibody, human IgG1, kappa)
heavy 1: not shown
heavy 2: not shown
light: B1 light
notes: copies: 1 + 1 + 2
B28: GpH7-A5/GpH7-B3 variant H268_05P/GpL16-k0 (antibody, human IgG1, kappa)
heavy 1: not shown
heavy 2: not shown
light: B1 light
notes: He Ab; copies: 1 + 1 + 2

Target: T1, FcγRIIIa (human, UniProt P08637 17-208)
T1 construct: extracellular domain; also called 3a; FcγRIIIa extracellular domain
T1 sequence (P08637 other isoform, or with tags, fused parts or gaps): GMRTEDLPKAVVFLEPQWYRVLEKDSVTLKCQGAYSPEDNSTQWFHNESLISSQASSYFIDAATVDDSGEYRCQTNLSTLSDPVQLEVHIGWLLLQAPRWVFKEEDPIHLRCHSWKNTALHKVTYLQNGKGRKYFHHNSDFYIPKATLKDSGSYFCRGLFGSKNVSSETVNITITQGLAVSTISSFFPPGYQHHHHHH
Test: SPR (Biacore);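 further: antibody variants captured on an SPR sensor chip, with FcγRIIIa passed over as analyte in HBS-EP+ buffer at 25 °C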

| Binder | He/Con 3a |
| --- | --- |
| B1 | 105 % of GpH7-A5/GpH7-B3/GpL16-k0 |
| B2 | 84.9 % of GpH7-A5/GpH7-B3/GpL16-k0 |
| B3 | 102 % of GpH7-A5/GpH7-B3/GpL16-k0 |
| B4 | 89 % of GpH7-A5/GpH7-B3/GpL16-k0 |
| B5 | 106 % of GpH7-A5/GpH7-B3/GpL16-k0 |
| B6 | 113 % of GpH7-A5/GpH7-B3/GpL16-k0 |
| B7 | 127 % of GpH7-A5/GpH7-B3/GpL16-k0 |
| B8 | 72.4 % of GpH7-A5/GpH7-B3/GpL16-k0 |
| B9 | 75.8 % of GpH7-A5/GpH7-B3/GpL16-k0 |
| B10 | 58.1 % of GpH7-A5/GpH7-B3/GpL16-k0 |
| B11 | 60.7 % of GpH7-A5/GpH7-B3/GpL16-k0 |
| B12 | 93.1 % of GpH7-A5/GpH7-B3/GpL16-k0 |
| B13 | 88.1 % of GpH7-A5/GpH7-B3/GpL16-k0 |
| B14 | 100 % of GpH7-A5/GpH7-B3/GpL16-k0 |
| B15 | 101 % of GpH7-A5/GpH7-B3/GpL16-k0 |
| B16 | 97.8 % of GpH7-A5/GpH7-B3/GpL16-k0 |
| B17 | 113 % of GpH7-A5/GpH7-B3/GpL16-k0 |
| B18 | 56.8 % of GpH7-A5/GpH7-B3/GpL16-k0 |
| B19 | 92.8 % of GpH7-A5/GpH7-B3/GpL16-k0 |
| B20 | 67.9 % of GpH7-A5/GpH7-B3/GpL16-k0 |
| B21 | 66.3 % of GpH7-A5/GpH7-B3/GpL16-k0 |
| B22 | 99.3 % of GpH7-A5/GpH7-B3/GpL16-k0 |
| B23 | 94.4 % of GpH7-A5/GpH7-B3/GpL16-k0 |
| B24 | 69.1 % of GpH7-A5/GpH7-B3/GpL16-k0 |
| B25 | 99.7 % of GpH7-A5/GpH7-B3/GpL16-k0 |
| B26 | 83.8 % of GpH7-A5/GpH7-B3/GpL16-k0 |
| B27 | 102 % of GpH7-A5/GpH7-B3/GpL16-k0 |

Target: T2, FcγRIIIa extracellular domain, C-terminal His tag (human, UniProt P08637 17-208)
T2 construct: extracellular domain; also called 3a
T2 sequence (P08637 other isoform, or with tags, fused parts or gaps): as above
Test: SPR, binding activity relative to GpH7-A5/GpH7-B3/GpL16-k0 (=100)

| Binder | He/Con 3a [%] |
| --- | --- |
| B28 | 75.6 |
